US20200239888, “COMPOSITIONS AND METHODS FOR MODULATION OF PROTEIN AGGREGATION” (Ionis Pharmaceuticals, Inc., published 2020)

Biological target: FUS(1-526)[P525L]-NLUC-FLAG (UniProt P35637 P35637:1-526, P525L)
Assay: competition; competitive nanoBRET vs AF594-JB39; reported as KD (50% dissociation of BRET pair); table prints NLUC-HA, text NLUC-FLAG
Details: tags: C-terminal NLUC-FLAG; PURExpress
Description: Competitive NanoBRET binding assays were performed with unlabeled oligonucleotides JB40, JB41, and JB42. First, the relative amount of purified protein per volume of bead suspension (based on nluc activity) was determined in 2× binding buffer (200 mM potassium acetate, 40 mM Tris pH 8.0, 2 mM EDTA, 0.02% NP-40, 6 μg/mL BSA, and 1:1000 Promega Nano-Glo luciferase substrate) using an eight-point dilution curve over ˜3.5 orders of magnitude. Alexafluor594-labeled JB39 was diluted into water in opaque white 96-well plates a single concentration, and varying concentrations of JB40, JB41, or JB42, spanning the pM to low μM range were added to a final total volume of 50 μL/well. 50 μL/well of 2× binding buffer containing 10⁶ RLU (relative luminescence units) beads/well was added and plates were shaken for 10 minutes at room temperature. Nanoluciferase activity and BRET were measured in a Glowmax Discover plate reader and KD values, shown in the table below, were calculated using GraphPad Prism.

Sequence of FUS(1-526)[P525L]-NLUC-FLAG (P35637 whole entry P525L, one chain of several): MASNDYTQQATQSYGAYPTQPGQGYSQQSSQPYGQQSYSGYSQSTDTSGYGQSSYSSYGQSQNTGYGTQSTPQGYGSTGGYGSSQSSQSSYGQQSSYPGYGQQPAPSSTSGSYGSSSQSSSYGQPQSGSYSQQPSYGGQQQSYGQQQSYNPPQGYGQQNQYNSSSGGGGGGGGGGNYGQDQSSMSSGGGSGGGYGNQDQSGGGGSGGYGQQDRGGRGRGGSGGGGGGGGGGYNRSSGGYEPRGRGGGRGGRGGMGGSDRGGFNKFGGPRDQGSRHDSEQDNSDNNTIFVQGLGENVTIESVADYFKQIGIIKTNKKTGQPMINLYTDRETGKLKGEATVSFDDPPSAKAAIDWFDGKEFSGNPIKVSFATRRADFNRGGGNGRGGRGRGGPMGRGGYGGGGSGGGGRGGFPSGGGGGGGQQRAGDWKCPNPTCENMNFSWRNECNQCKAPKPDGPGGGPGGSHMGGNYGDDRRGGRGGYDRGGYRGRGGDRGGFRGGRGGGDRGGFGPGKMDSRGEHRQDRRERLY

| Binder | IC50 |
| --- | --- |
| CTGCTAGCCTCTGGATTTGA (ssDNA, full PS) [JB41 (DNA, phosphorothioate)] | 0.4 nM |
| CUGCUAGCCUCUGGAUUUGA (ssRNA, full PS) [JB42 (RNA, phosphorothioate)] | 7.2 nM |
